Measured values from publication PMC2444022.

Legend:
[1] = system: LysRS(T133A) (Escherichia coli); test: EMSA; settings: gel-retardation buffer, pH and temperature not in material
[2] = system: LysRS wild type (lysyl-tRNA synthetase) (Escherichia coli); test: EMSA; settings: reference; gel-retardation buffer, pH and temperature not in material
[3] = system: LysRS(K130A) (Escherichia coli); test: EMSA; settings: gel-retardation buffer, pH and temperature not in material
[4] = system: LysN (anticodon-binding domain of LysRS) (Escherichia coli); settings: gel-retardation buffer, pH and temperature not in material; cited from earlier work

Substance | binding signal (fraction of WT bound) [1] | binding signal (fraction of WT bound) [2] | binding signal (fraction of WT bound) [3] | Kd [4]
tRNALys | 1.17 | 1 | 0.35 | 
tRNALys (unlabeled competitor) |  |  |  | 100 µM
